T1: BbBrlA (Beauveria bassiana, UniProt J5JC27 1-370)
T1 sequence: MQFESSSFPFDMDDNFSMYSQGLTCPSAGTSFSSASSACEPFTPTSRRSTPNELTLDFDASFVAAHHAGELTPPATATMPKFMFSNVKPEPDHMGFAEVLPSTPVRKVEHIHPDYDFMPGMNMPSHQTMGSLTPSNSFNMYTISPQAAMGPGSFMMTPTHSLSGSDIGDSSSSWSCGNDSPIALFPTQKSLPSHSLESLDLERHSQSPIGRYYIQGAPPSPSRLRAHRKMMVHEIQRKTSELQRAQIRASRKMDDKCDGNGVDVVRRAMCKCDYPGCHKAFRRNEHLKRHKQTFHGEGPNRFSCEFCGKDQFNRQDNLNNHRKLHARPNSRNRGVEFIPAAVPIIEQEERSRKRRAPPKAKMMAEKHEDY

T2: BbCmr1 (Beauveria bassiana, UniProt J4VZG7 1-764)
T2 sequence: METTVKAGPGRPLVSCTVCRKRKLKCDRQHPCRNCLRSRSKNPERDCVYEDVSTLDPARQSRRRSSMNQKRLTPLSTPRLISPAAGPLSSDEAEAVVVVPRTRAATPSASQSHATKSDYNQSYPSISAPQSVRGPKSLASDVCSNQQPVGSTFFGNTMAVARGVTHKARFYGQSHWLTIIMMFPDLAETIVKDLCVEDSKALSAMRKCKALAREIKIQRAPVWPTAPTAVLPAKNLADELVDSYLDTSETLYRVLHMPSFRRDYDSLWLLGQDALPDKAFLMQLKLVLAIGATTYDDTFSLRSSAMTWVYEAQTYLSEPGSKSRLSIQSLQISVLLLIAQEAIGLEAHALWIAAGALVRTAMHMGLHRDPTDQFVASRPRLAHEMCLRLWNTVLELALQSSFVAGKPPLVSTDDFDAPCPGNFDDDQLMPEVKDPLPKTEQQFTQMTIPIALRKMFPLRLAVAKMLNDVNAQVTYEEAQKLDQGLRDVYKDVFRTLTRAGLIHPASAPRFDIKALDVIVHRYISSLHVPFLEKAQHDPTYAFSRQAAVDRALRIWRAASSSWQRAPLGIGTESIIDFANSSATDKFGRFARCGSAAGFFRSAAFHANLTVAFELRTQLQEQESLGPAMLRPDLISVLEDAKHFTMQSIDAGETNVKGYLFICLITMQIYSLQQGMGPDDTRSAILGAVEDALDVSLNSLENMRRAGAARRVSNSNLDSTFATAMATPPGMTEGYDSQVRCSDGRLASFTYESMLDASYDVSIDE


Key:
BbBrlA = target: T1, BbBrlA; assay: EMSA; shift lost with 200-fold unlabeled probe; LightShift Chemiluminescent EMSA kit, manufacturer's instructions; buffer, salt, pH and temperature not given; conditions: protein: recombinant; tags: GST; label: biotin; blunt
BbCmr1 = target: T2, BbCmr1; assay: EMSA; 0.5-2 ug protein, 10 ng probe; concentration-dependent; complex decreased by 200-800-fold unlabeled probe; LightShift Chemiluminescent EMSA kit, manufacturer's instructions; buffer, salt, pH and temperature not given; conditions: protein: recombinant; tags: N-terminal GST (pGEX-6p); chain copies: 2; label: biotin; blunt

Row | Binder | binding result (BbBrlA) | binding result (BbCmr1)
1 | Bbcmr1 promoter probe (cmr1-EMSA) (dsDNA) DNA 1: CGGAATTACGATATTACCCCTAGAGACAATTTTTATTATA DNA 2: TATAATAAAAATTGTCTCTAGGGGTAATATCGTAATTCCG | binds | 
2 | BbbrlA promoter probe (brlA-EMSA) (dsDNA) DNA 1: GGAAAAAAAAAAAAGAAAAGGAACCCACAACTCAAGTCT DNA 2: AGACTTGAGTTGTGGGTTCCTTTTCTTTTTTTTTTTTCC |  | binds
